Measurements reported in patent US20230357341A1.

T1: mouse EPOR expressed on Ba/F3 cells (BaF3/mouse EPOR) (mouse) (UniProt P14753)
T1 sequence: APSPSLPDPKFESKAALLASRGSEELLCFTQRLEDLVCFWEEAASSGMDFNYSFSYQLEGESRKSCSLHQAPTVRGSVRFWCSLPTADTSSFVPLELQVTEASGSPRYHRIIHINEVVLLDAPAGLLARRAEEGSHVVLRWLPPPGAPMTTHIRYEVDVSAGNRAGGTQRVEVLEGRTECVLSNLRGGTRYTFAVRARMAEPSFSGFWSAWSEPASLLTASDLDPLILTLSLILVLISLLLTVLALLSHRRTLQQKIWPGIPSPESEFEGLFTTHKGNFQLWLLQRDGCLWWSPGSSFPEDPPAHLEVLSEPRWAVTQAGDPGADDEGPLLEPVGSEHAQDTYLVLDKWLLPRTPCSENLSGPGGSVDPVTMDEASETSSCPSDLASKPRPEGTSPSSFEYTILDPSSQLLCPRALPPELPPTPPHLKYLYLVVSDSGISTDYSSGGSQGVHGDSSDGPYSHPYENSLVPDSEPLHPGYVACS

T2: cat EPOR expressed on Ba/F3 cells (BaF3/cat EPOR) (cat)
T2 sequence: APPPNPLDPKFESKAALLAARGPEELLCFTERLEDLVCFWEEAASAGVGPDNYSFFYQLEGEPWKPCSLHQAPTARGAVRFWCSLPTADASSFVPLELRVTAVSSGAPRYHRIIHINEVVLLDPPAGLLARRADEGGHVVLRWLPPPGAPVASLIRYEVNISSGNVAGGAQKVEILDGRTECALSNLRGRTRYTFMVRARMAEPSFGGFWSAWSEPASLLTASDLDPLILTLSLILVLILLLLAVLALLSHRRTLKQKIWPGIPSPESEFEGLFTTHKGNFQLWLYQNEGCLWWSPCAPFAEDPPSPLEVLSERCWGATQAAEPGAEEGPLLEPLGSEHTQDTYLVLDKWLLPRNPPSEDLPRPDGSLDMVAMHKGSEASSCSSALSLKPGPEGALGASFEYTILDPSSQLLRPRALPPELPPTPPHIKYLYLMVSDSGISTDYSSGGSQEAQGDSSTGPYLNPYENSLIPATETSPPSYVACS


Columns and labels:
[1] = molecular target: T1, mouse EPOR expressed on Ba/F3 cells (BaF3/mouse EPOR) (mouse)
[2] = molecular target: T2, cat EPOR expressed on Ba/F3 cells (BaF3/cat EPOR) (cat)

EC50 (read off the curve), BaF3/mouse EPOR cell proliferation [1] [nM]	EC50 (read off the curve), BaF3/cat EPOR cell proliferation [2] [nM]	Molecule
0.05	0.02	cat EPO-Fc (C165R cat EPO-siCFV3) of Examples 12 and 13 (Fc fusion, not shown: small tags and cut ends) APPRLICDSRVLERYILEAREAENVTMGCAEGCSFSENITVPDTKVNFYTWKRMDVGQQAVEVWQGLALLSEAILRGQALLANSSQPSETLQLHVDKAVSSLRSLTSLLRALGAQKEATSLPEATSAAPLRTFTVDTLRKLFRIYSNFLRGKLTLYTGEACRRGDRPPEMRRGPKIFIFPPKPKDTLSISRTPEVTCLVVDLGPDDSDVQITWFVDNTQVYTAKTSPREEQFNSTYRVVSVLPILHQDWLKGKEFKCKVNSKSLPSPIERTISKAKGQPHEPQVYVLPPAQEELSRNKVSVTCLIKSFHPPDIAVEWEITGQPEPENNYRTTPPQLDSDGTYFVYSKLSVDRSHWQRGNTYTCSVLHEALHAHHTRKELTQSPGK
0.05	–	wild-type mouse EPO-His (fusion protein of mouse EPO and His tag) (ligand) APPRLICDSRVLERYILEAKEAENVTMGCAEGPRLSENITVPDTKVNFYAWKRMEVEEQAIEVWQGLSLLSEAILQAQALLANSSQPPETLQLHIDKAISGLRSLTSLLRVLGAQKELMSPPDTTPPAPLRTLTVDTFCKLFRVYANFLRGKLKLYTGEVCRRGDRGAAHHHHHHHHH

The remaining lines, values behind:

Molecule	EC50 (read off the curve), BaF3/mouse EPOR cell proliferation [1] [nM]	EC50 (read off the curve), BaF3/cat EPOR cell proliferation [2] [nM]
wild-type cat EPO-His (fusion protein of cat EPO and His tag) (from UniProt P33708 27-192) (ligand)	0.04	0.03
human EPO (PeproTech) (from UniProt P01588 28-193) (ligand)	–	0.02
